The subject of assay [1] is rat spinal cord dorsal hemisection. Briefly: Intrathecal sNogoR310-Fc in rats with mid-thoracic dorsal hemisection. The format is in vivo. An excerpt:
(§1) The Basso-Beattie-Bresnahan (BBB) locomotor rating scale (Basso et al., 1996, Neurotrauma 13, 343-359), the inclined plane test and the inclined grid walking test (Li and Strittmatter, 2003, J Neurosci. 2003, 23, 4219-27) were monitored in rats and mice after injury. For the inclined plane test, we measured the maximal angle to which a 50 cm×60 cm board could be angled for 5 sec without the mouse sliding off. For inclined grid walking, the mice were trained to climb a wire grid (35 cm long with 2.54 cm squares) at a slope of 45 degrees. The number of instances in which the hindpaw dropped below the grid plane was scored for each excursion from bottom to top. For the rat behavioral testing, BBB locomotor scale, grid walking and footprint analysis were performed. For grid walking, the rats were trained to walk on a wire grid (70 cm long with 2.54 cm squares), and the number of instances in which the hindpaw dropped below the grid plane was counted. For footprint analysis, the walking patterns of rat hindpaws were recorded with ink during a continuous locomotion across a 90 cm runway, and stride length on each side and stride width were calculated (Metz et al., 2000, Brain Res., 883, 165-177). All of these behavioral tests were performed by at least two individuals. Throughout the surgery, behavioral testing and histologic analysis, researchers were blind to the identity of the compound in the minipump.
We isolated spinal cord 4 mm rostral to and 4 mm caudal to the lesion site (8 mm long in total) from transgenic mice and embedded it in a glutaraldehyde-polymerized albumin matrix, and cut parasagittally on a vibratome (30 μm thick). We collected transverse sections (50 μm) from the spinal cord 5-7 mm rostral to and 5-7 mm caudal, to the injury site. For sNogoR310-Fc injection experiments in rats, the spinal cord extending from 10 mm rostral to 10 mm caudal from the lesion site was cut parasaggitally (50 μm) on a vibrating microtome. Transverse sections were collected from the spinal cord 11-16 mm rostral to and 11-16 mm caudal to the injury site. We incubated the sections with avidin-biotin-peroxidase complex and visualized the BDA tracer by nickel-enhanced diaminobenzidine HRP reaction (Grandpre, 2002, Nature, 417, 547-551). We processed some sections for serotonin immunohistochemistry (anti-5-HT antibody) by indirect immunofluoresence. To visualize the lesion area, we double-stained some sections with antibodies directed against GFAP (Sigma®, St. Louis, Mo.). We mounted, dehydrated and covered the sections with mounting medium.
We fused the ligand binding domain (27-310) of rat Nogo receptor-1 to the rat IgG1 Fc domain to promote stability and purification. We purified protein from stably transfected CHO cells. […]

Another assay concerns DRG neurons. Briefly: Neurite outgrowth assay, myelin mixed with test protein (Example 10). In kind it is cell-based. The settings on record: P3-4 rat DRG; spotted mixed with CNS myelin. The protocol:
Lab-Tek® culture slides (4 wells) were coated with 0.1 mg/ml poly-D-lysine (Sigma®). CNS myelin alone or mixed with sNogoR310, sNogoR310-Fc fusion protein, mAb 5B10 or control PBS were separately spotted as 3 μl drops. Fluorescent microspheres (Polysciences) were added to the myelin/PBS to allow later identification of the drops (Grandpre et al, Nature 403, 2000). Lab-Tek® slides were then rinsed and coated with 10 μg/ml laminin (Gibco™).
Dorsal root ganglions (DRG's) from P3-4 Sprague Dawley rat pups were dissociated with 1 mg/ml collagenase type 1 (Worthington), triturated with fire-polished Pasteur pipettes pre-plated to enrich in neuronal cells and finally plated at 23,000 cells/well on the pre-coated Labtek culture slides. The culture medium was F12 containing 5% heat inactivated donor horse serum, 5% heat inactivated fetal bovine serum and 50 ng/ml MNGF and incubated at 37° C. and 5% CO2 for 6 hours.
Slides were fixed for 20 minutes with 4% paraformaldehyde containing 20% sucrose and stained for the neuronal marker anti beta-III-tubulin (Covance TUJ1) diluted 1:500. As secondary antibody anti-mouse Alexa Fluor® 594 (Molecular Probes) was diluted 1:300 and slides were coverslipped with Gel/Mount™ (Biømeda™). 5× digital images were acquired with OpenLab™ software and analyzed by using the MetaMorph® software for quantification of neurite outgrowth.

In a further assay the test system is Nogo-66, MAG and myelin. Briefly: Blocking of Nogo-66, MAG and myelin action in vitro.
Another assay has as its system Nogo receptor-1. The assay is described as follows: Blocking of ligand binding to Nogo receptor-1 by soluble receptors.
The next assay concerns chick neurons. The assay is described as follows: Neurite outgrowth assay using chick neurons. The format is cell-based.
For assay [2], the system named is mouse spinal cord dorsal over-hemisection. Briefly: Dorsal over-hemisection in gfap::sNogoR310 transgenic mice. The format is in vivo.
Text: as §1
We cloned the mouse sNogoR310 cDNA (corresponding to amino acids 1-310 of the Nogo receptor-1) into the NotI site of the C-3123 vector. In this vector, sNogoR310 expression is under the control of the glial fibrillary acidic protein (gfap) gene regulatory elements, which allow high level expression with enhanced secretion from reactive astrocytes at site of injury. We digested the resulting vector sequentially with AatII and SfiI and isolated the gfap::sNogoR310 construct on a 3.4 kb fragment. We microinjected this fragment into embryos to generate transgenic mice. We verified by PCR that the transgene had integrated and identified five founder lines. We crossed heterozygous males of the two founder lines with the highest expression levels to female C57BL/6J mice. We confirmed that the GFAP-positive cells express and secrete sNogoR310 in heterozygous transgenic mice by Western blot analysis using antibody raised against Nogo receptor-1.
We deeply anesthetized adult female heterozygous transgenic or littermate WT mice (10-16 weeks of age) and performed a complete laminectomy, fully exposing the dorsal part of spinal cord at T6 and T7 levels. We performed a dorsal over-hemisection at T6 with a 30-gauge needle and a pair of microscissors to completely sever the dorsal and dorsolateral corticospinal tracts (CSTs). We passed a marked needle across the dorsal part of the spinal cord several times to assure that the lesion was at a depth of 1.0 mm. We sutured the muscle layers over the laminectomies and closed the skin on the back with surgical staples. To trace the corticospinal tracts, we made a burr hole overlying cerebral cortex on the right side into the skull 14 days after spinal cord injury. We applied the tracer BDA (MW 10,000, 10% in PBS) (Molecular Probes, Eugene, Oreg.) to 4 injection sites at a depth of 0.7 mm from the cortical surface. Four weeks after injury, the mice were perfused transcardially with PBS, followed by 4% paraformaldehyde.
We investigated the integrity of descending corticospinal tracts (CST) by injecting anterograde tracer biotin dextran amine (BDA) into the right motor cortex as described in Li and Strittmatter, 2003, J. Neurosci., 23, 4219-27. In littermate WT mice, the prominent dorsal CST (dCST) is tightly bundled rostral to the lesion, and a few dorsolateral CST fibers are visible ipsilaterally. A small number of BDA-labeled short collateral sprouts project into gray matter, particularly in the ventral cord, but the sprouting is largely confined to the side of the cord contralateral to the tracer injection. […]

B1: sNogoR310-Fc: fusion protein comprising amino acids 26-310 of rat Nogo receptor-1 and a rat Fc fragment (protein)
chain: PCPGACVCYNEPKVTTSRPQQGLQAVPAGIPASSQRIFLHGNRISYVPAASFQSCRNLTILWLHSNALAGIDAAAFTGLTLLEQLDLSDNAQLRVVDPTTFRGLGHLHTLHLDRCGLQELGPGLFRGLAALQYLYLQDNNLQALPDNTFRDLGNLTHLFLHGNRIPSVPEHAFRGLHSLDRLLLHQNHVARVHPHAFRDLGRLMTLYLFANNLSMLPAEVLVPLRSLQYLRLNDNPWVCDCRARPLWAWLQKFRGSSSGVPSNLPQRLAGRDLKRLATSDLEGCA
modifications: left off: a dimerising Fc or GST
notes: fusion protein comprising amino acids 26-310 of rat Nogo receptor-1 and a rat Fc fragment
B1: the “animals with consistent forelimb-hindlimb coordination and parallel paw position” value in assay [1] (4 weeks after injury) is given as “all 9”. Besides, in assay [1] (distal spinal cord), the “total collateral length of each sprout versus NEP 1-40-treated animals” value is on record as “twice as great”. Moreover, in assay [1] (sections 11-15 mm below the lesion), the “serotonin fibers versus control group” value is given as “twice as numerous”. In addition, the “rubrospinal tract fibers distal to SCI” value in assay [1] (transverse sections 11-15 mm distal) is “many BDA-labeled RST fibers”. Also, the “protection from myelin-mediated inhibition of neurite outgrowth” value in the assay with DRG neurons is “protected”. Moreover, the “blocking of Nogo-66, MAG and myelin action” value in the assay with Nogo-66, MAG and myelin is “blocks”.

B2: sNogoR310: soluble Nogo receptor-1 polypeptide, residues 26-310 (human) or 27-310 (rat); mouse form expressed in transgenic mice (protein)
chain: CPGACVCYNEPKVTTSRPQQGLQAVPAGIPASSQRIFLHGNRISYVPAASFQSCRNLTILWLHSNALAGIDAAAFTGLTLLEQLDLSDNAQLRVVDPTTFRGLGHLHTLHLDRCGLQELGPGLFRGLAALQYLYLQDNNLQALPDNTFRDLGNLTHLFLHGNRIPSVPEHAFRGLHSLDRLLLHQNHVARVHPHAFRDLGRLMTLYLFANNLSMLPAEVLVPLRSLQYLRLNDNPWVCDCRARPLWAWLQKFRGSSSGVPSNLPQRLAGRDLKRLATSDLEGCA
For the molecule B2, the “blocking of binding of NogoA, NogoB, NogoC, MAG and OM-gp to Nogo receptor-1” value with Nogo receptor-1 is “block the binding”. In addition, in the assay on chick neurons, the “protection in similar assay using chick neurons” value was “protective”. Also, the grid climbing entry in assay [2] (2-6 weeks post-injury) was “progressive improvement”. In assay [2] (any level 1-4 mm caudal to the lesion, each transgenic mouse), the “BDA-labeled regenerating fibers in the rostral-caudal axis” value is given as 5-15. Also, the “sustainable inclined plane angle” value in assay [2] (days 7-28 after injury vs control) is given as “significantly greater”. The BBB scores result in assay [2] (lines Tg08 and Tg01 vs control, 7-28 days) was “significantly higher”. Further, the “fibers on the opposite side of the spinal cord (ipsilateral to tracer injection)” value in assay [2] (rostral to dorsal hemisection) is listed as 4-12 sprouts per transverse section. Moreover, the “sprouting density of collateral sprouts (micro densitometric measurement)” value in assay [2] (rostral to lesion, transgenic vs WT) is reported as “approximately a tenfold increase”. The CST sprouting entry in assay [2] (secreted in transgenic mice) was “induces CST sprouting”. In assay [2] (transgenic vs WT), the “serotonin fibers in ventral horn of caudal spinal cord” value was “much greater number”. In the assay on DRG neurons, the “protection from myelin-mediated inhibition of neurite outgrowth” value is recorded as “protected”.
